Experimental findings from patent publication US20230184787A1 (NORDIC BIOSCIENCE A S, published 2023) are described below.

T1: truncated peptide LGHPDTLNQ (Homo sapiens)
T1 construct: also called N-truncated shortened version
T1 peptide: LGHPDTLNQ

T2: non-sense peptide YRDDLKKLLET (Homo sapiens)
T2 construct: also called NBH-225
T2 peptide: YRDDLKKLLET

T3: elongated peptide VKLGHPDTLNQ (Homo sapiens)
T3 construct: also called N-extended elongated version
T3 peptide: VKLGHPDTLNQ

T4: full-length human calprotectin (heterodimer of S100A9 and S100A8) (Homo sapiens, UniProt P06702 1-114; P05109 1-93)
T4 construct: also called intact full-length human calprotectin; purified calprotectin
T4 sequence (looked up) 1: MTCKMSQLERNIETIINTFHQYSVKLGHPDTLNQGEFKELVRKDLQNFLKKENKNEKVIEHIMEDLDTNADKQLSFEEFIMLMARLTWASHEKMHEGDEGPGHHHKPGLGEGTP
T4 sequence (looked up) 2: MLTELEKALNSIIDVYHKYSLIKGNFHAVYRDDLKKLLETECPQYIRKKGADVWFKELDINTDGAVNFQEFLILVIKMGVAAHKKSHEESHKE

T5: human neutrophil elastase (human, UniProt P08246 30-247, limits assumed)
T5 construct: also called HNE
T5 sequence (looked up): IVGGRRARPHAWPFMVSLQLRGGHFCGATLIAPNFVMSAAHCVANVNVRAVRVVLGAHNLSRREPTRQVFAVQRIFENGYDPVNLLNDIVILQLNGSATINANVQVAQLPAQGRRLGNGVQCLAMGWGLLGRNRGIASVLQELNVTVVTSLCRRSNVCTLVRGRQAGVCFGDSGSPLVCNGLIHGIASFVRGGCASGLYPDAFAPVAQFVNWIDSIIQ

B1: CPa9-HNE antibody (antibody, mouse IgG1, kappa, V domains shown)
VH: QVQLQQSGPELVKPGASVKMSCKASGYTFTDHVINWVRQRTGQGLEWIGEIYPGSGSTYYNEKFKGKATLTADKSSNTAYMQLSSLTSEDSAVYFCAWFAYWGQGTLVTVSA
VL: DIVMTQSPSSLSVSAGEKVTMSCKSSQSLLNSGNQKNYLAWYQQKPGQPPKLLIYGASTRESGVPDRFTGSGSGTDFTLTISSVQAEDLAVYYCLNDHSYPYTFGGGTKLEIKR
notes: also called monoclonal antibody targeting CPa9-HNE
B2: selection peptide KLGHPDTLNQ (peptide)
peptide: KLGHPDTLNQ
notes: also called calibrator peptide

The target of experiment [1] is T1, truncated peptide LGHPDTLNQ
In words: competitive ELISA (CPa9-HNE assay), peptide specificity test, FIG. 2B. The method, then:
(§1) No. 11940279, Hvidovre, Denmark) were coated with a biotinylated antigen ([…]-K-Biotin (SEQ ID NO: 27)) by incubation with the biotinylated antigen for 30 minutes at room temperature. Unbound biotinylated coater antigen was discarded, and the wells were washed with washing buffer (25 mM TRIZMA, 50 mM NaCl, 0.036% Bronidox L5, 0.1% Tween 20) using a standardized ELISA plate washing machine (BioTek® Instruments, Microplate washer, ELx405 Select CW, Winooski, USA). Samples were diluted in incubation buffer containing 1% bovine serum albumin (Sigma Aldrich, cat. No. a-7906, 98 purity) to maintain protein stability and for blocking. Samples and controls were added to the wells and incubated with the primary monoclonal antibody against the HNE-generated neo-epitope (CPa9-HNE), at 20° C. for 1 hour and agitated at 300 rpm. Unbound primary antibody and sample were discarded, and the wells were washed with washing buffer. Subsequently, HRP conjugated AffiniPure Rabbit anti-mouse IgG secondary antibodies (Jackson cat. No 315-035-045) was added to the wells and incubated for 1 hour at 20° C. Unbound secondary antibody was discarded by washing the wells in washing buffer. Chemiluminescence substrate (Roche Diagnostic's cat. No. 11582950001) was added to the well (100 μl/well), and the plates were incubated for 3 minutes at room temperature before reading the plates. Finally, an ELISA reader (VersaMAX; Molecular Devices, Wokingham Berkshire, UK) was used to quantify the relative light units (RLU) emitted from the plates […]. A standard curve was plotted using a 4-parametric mathematical fit model.
(§2) A monoclonal antibody (also referred to herein as the CPa9-HNE antibody) targeting CPa9-HNE (the HNE-generated N-terminus neo-epitope of NBH-222) was developed and used in an ELISA protocol as described above (also referred to hereinafter as the CPa9-HNE assay), and the specificity of this antibody when used in this immunoassay was tested against the selection peptide and the elongated peptide, truncated peptide and non-sense peptide (having the sequences set out in Table 1).

The target of experiment [2] is T2, non-sense peptide YRDDLKKLLET
The description is as above. The method, then:
as §1, §2

Experiment [3] addresses B2. The experiment is described as above. The method, then:
as §1, §2

In experiment [4] the target is T3, elongated peptide VKLGHPDTLNQ
The description is as above. The method, then:
as §1, §2

The target in experiment [5] is T4, full-length human calprotectin …. In words: competitive ELISA (CPa9-HNE assay) on in vitro cleavage samples and controls, FIG. 2C. The method, then: (§3) Samples were diluted in incubation buffer containing 1% bovine serum albumin (Sigma Aldrich, cat. No. a-7906, 98 purity) to maintain protein stability and for blocking. Samples and controls were added to the wells and incubated with the primary monoclonal antibody against the HNE-generated neo-epitope (CPa9-HNE), at 20° C. for 1 hour and agitated at 300 rpm. Unbound primary antibody and sample were discarded, and the wells were washed with washing buffer. Subsequently, HRP conjugated AffiniPure Rabbit anti-mouse IgG secondary antibodies (Jackson cat. No 315-035-045) was added to the wells and incubated for 1 hour at 20° C. Unbound secondary antibody was discarded by washing the wells in washing buffer. Chemiluminescence substrate (Roche Diagnostic's cat. No. 11582950001) was added to the well (100 μl/well), and the plates were incubated for 3 minutes at room temperature before reading the plates. Finally, an ELISA reader (VersaMAX; Molecular Devices, Wokingham Berkshire, UK) was used to quantify the relative light units (RLU) emitted from the plates […]. A standard curve was plotted using a 4-parametric mathematical fit model. […]
(In general: ELISA stands for enzyme-linked immunosorbent assay.)

The target in experiment [6] is T5, human neutrophil elastase. Described as above. The method, then: as §3
Experiment [7] deals with B1. The experiment is described as follows: competitive ELISA: standard (calibrator) peptide in solution competes with …-K-Biotin on streptavidin plates for the CPa9-HNE antibody; mean of the standard curves.

Turning to B1, the binding result in experiment [1] is “no binding”; in experiment [2] it was “no binding”; in experiment [3], “binds”; in experiment [4], “no binding”; in experiment [5], “no binding”; in experiment [6] it was “no binding”.
As usually defined, the IC50 is the midpoint of a concentration-inhibition curve. The low end stands for higher potency, the high end for lower potency. For B2, the IC50 in experiment [7] turned out to be 0.0783 µg/mL.
